The values below come from paper PMC12318543.

For test [1], the target named is PtuA (Escherichia coli Septu system) (Escherichia coli (strain ATCC 25922)). Put plainly: cryo-EM structure.
Test [2] shares this target. Put plainly: cryo-EM structure. The source holds these as a separate data set.
Test [3] deals with PtuA L81R mutant (Escherichia coli (strain ATCC 25922)). Kind of test: mass photometry.

Like-named read-outs stand apart in the source and are kept apart here.

Regarding “PtuA (Escherichia coli Septu system) (natural protein)”, the stoichiometry N in test [1] and in test [2] was 6 in each case.
Take PtuA L81R mutant (natural protein): the stoichiometry N – broadly, a count of units in the complex or per binding partner – in test [3] is 2.
